# Source: patent publication US20240218023A1, “CYCLIC PEPTIDE-N-ACETYLGALACTOSAMINE (GALNAC) CONJUGATES FOR DRUG DELIVERY TO LIVER CELLS” (MICROBIO (SHANGHAI) CO., LTD., priority 2021, published 2024)
# T1: asialoglycoprotein receptor (ASGPR) on HepG2 cells (human, UniProt P07306 1-291; P07307 1-311)
# T1 construct: whole, on cells; also called ASGPR receptor on liver cells
# T1 sequence (looked up) 1: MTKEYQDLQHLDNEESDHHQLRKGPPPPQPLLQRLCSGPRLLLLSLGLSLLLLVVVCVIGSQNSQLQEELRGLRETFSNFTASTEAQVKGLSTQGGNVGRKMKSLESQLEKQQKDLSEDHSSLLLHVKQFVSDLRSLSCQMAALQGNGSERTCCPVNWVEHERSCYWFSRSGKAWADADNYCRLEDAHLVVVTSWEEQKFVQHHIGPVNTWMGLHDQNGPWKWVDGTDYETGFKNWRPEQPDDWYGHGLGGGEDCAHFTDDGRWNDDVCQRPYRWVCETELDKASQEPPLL
# T1 sequence (looked up) 2: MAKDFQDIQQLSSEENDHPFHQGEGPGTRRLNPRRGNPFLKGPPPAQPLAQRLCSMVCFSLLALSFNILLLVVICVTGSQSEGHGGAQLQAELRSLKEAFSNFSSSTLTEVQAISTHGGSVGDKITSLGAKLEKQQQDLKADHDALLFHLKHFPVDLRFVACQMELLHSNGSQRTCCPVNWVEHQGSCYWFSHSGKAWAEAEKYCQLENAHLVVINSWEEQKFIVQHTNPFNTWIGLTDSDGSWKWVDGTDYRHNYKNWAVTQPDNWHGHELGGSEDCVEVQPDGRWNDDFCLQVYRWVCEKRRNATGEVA
# B1: 5-FAM-CPMB-0013 (peptide)
# peptide: KEKGKG
# modifications: head-to-tail cyclic; each Lys side chain carries GalNAc via linker Gal-3; Glu side chain carries Linker2 (6-aminohexyl amide) with 5-FAM
# notes: also called ID013
# Biological target: T1, asialoglycoprotein receptor (ASGPR) on …
# Assay: flow cytometry titration on HepG2 cells (% FAM-positive cells, 1.6-200 nM, 24 h)
# Description: Cells were seeded in 24-well plates with a density of 1.5×10⁵ cells per well and incubated under 37° C., 5% CO₂. After 18 h of incubation, media were replaced to MEM with 2% FBS and FAM-labeled ligands were added with final concentrations of 1.6, 8, 40 or 200 nM. After 24 h of incubation, cells were washed twice with 1×PBS and analyzed by LSRFortessa (BD Biosciences, NJ, USA). The binding efficiency was evaluated by the proportion of FAM positive cells.
# HepG2 cell was treated by 14 cyclic peptide-tri-GalNAc ligand variants with serial diluted concentration of 1.6, 8, 40 or 200 nM. Commercialized tri-GalNAc used in Givosirna was used as positive control and cyclic peptide w/o tri-GalNAc was negative control. Among 14 variants, 5-FAM-CPMB-0013 (ID013), 5-FAM-CPMB-0023 (ID023) and 5-FAM-CPMB-0035 (ID035) had relatively higher binding ability as compared to others and commercialized tri-GalNAc. Equilibrium dissociation constant (kd) for 5-FAM-CPMB-0013 (ID013), 5-FAM-CPMB-0023 (ID023), 5-FAM-CPMB-0035 (ID035) and commercialized tri-GalNAC were 7.0, 8.6, 5.7 and 18 nM, respectively.
binder,measurement,value
B1,Kd,7 nM
